Measurements reported in patent publication US20230002480A1.

Experiments:
Experiment in all cases: cell-based or functional assay
[1] = target: HIV-1 Env of pseudovirus 1006_11_C3_1601 (HIV-1)
[2] = target: HIV-1 Env of pseudovirus 1012_11_TC21_3257 (HIV-1)
[3] = target: HIV-1 Env of pseudovirus 1054_07_TC4_1499 (HIV-1)
[4] = target: HIV-1 Env of pseudovirus 1056_10_TA11_1826 (HIV-1)
[5] = target: HIV-1 Env of pseudovirus 231965.c01 (HIV-1)
[6] = target: HIV-1 Env of pseudovirus 231966.c02 (HIV-1)
[7] = target: HIV-1 Env of pseudovirus 249M B10 (HIV-1)
[8] = target: HIV-1 Env of pseudovirus 3301.v1.c24 (HIV-1)
[9] = target: HIV-1 Env of pseudovirus 6041.v3.c23 (HIV-1)
[10] = target: HIV-1 Env of pseudovirus 6545.v4.c1 (HIV-1)
[11] = target: HIV-1 Env of pseudovirus 6811.v7.c18 (HIV-1)
[12] = target: HIV-1 Env of pseudovirus 7030102001E5(Rev-) (HIV-1)
[13] = target: HIV-1 Env of pseudovirus 89-F1_2_25 (HIV-1)
[14] = target: HIV-1 Env of pseudovirus AC10.0.29 (HIV-1)
[15] = target: HIV-1 Env of pseudovirus BJOX028000.10.3 (HIV-1)
[16] = target: HIV-1 Env of pseudovirus CNE17 (HIV-1)
[17] = target: HIV-1 Env of pseudovirus CNE19 (HIV-1)
[18] = target: HIV-1 Env of pseudovirus CNE20 (HIV-1)
[19] = target: HIV-1 Env of pseudovirus CNE21 (HIV-1)
[20] = target: HIV-1 Env of pseudovirus CNE52 (HIV-1)
[21] = target: HIV-1 Env of pseudovirus Ce1086_B2 (HIV-1)
[22] = target: HIV-1 Env of pseudovirus Ce1176_A3 (HIV-1)
[23] = target: HIV-1 Env of pseudovirus Ce703010054_2A2 (HIV-1)
[24] = target: HIV-1 Env of pseudovirus Ce704809221_1B3 (HIV-1)
[25] = target: HIV-1 Env of pseudovirus Du172.17 (HIV-1)
[26] = target: HIV-1 Env of pseudovirus P0402_c2_11 (HIV-1)
[27] = target: HIV-1 Env of pseudovirus Q842.d12 (HIV-1)
[28] = target: HIV-1 Env of pseudovirus R2184.c04 (HIV-1)
[29] = target: HIV-1 Env of pseudovirus SC05_8C11_2344 (HIV-1)
[30] = target: HIV-1 Env of pseudovirus T250-4 (HIV-1)
[31] = target: HIV-1 Env of pseudovirus T251-18 (HIV-1)
[32] = target: HIV-1 Env of pseudovirus T278-50 (HIV-1)
[33] = target: HIV-1 Env of pseudovirus TRJO4551.58 (HIV-1)
[34] = target: HIV-1 Env of pseudovirus X1254_c3 (HIV-1)
[35] = target: HIV-1 Env of pseudovirus ZM135M.PL10a (HIV-1)
[36] = target: HIV-1 Env of pseudovirus ZM233M.PB6 (HIV-1)
[37] = target: HIV-1 Env of pseudovirus ZM53M.PB12 (HIV-1)

Q: How did the neutralization IC50 [1] turn out when 3BNC117 (antibody) was run?
A: 0.03 µg/mL

Q: What about the neutralization IC80 [1] of the same substance?
A: 0.1 µg/mL

Q: And the neutralization IC50 [2]?
A: 0.02 µg/mL

Q: What about the neutralization IC80 [2] of the same substance?
A: 0.07 µg/mL

Q: What about the neutralization IC50 [3] of the same substance?
A: 0.07 µg/mL

Q: What about the neutralization IC80 [3] of the same substance?
A: 0.49 µg/mL

Q: And the neutralization IC50 [4]?
A: 0.3 µg/mL

Q: And the neutralization IC80 [4]?
A: 1.82 µg/mL

Q: What about the IC50, titer in TZM.bl cells [5] of the same substance?
A: 0.05 µg/mL

Q: And the IC80, titer in TZM.bl cells [5]?
A: 0.22 µg/mL

Q: And the IC50, titer in TZM.bl cells [6]?
A: 0.29 µg/mL

Q: What about the IC80, titer in TZM.bl cells [6] of the same substance?
A: 2.37 µg/mL

Q: And the neutralization IC50 [7]?
A: 0.1 µg/mL

Q: And the neutralization IC80 [7]?
A: 0.4 µg/mL

Q: And the IC50, titer in TZM.bl cells [8]?
A: 0.01 µg/mL

Q: What about the IC80, titer in TZM.bl cells [8] of the same substance?
A: 0.05 µg/mL

Q: And the IC50, titer in TZM.bl cells [9]?
A: 0.01 µg/mL

Q: And the IC80, titer in TZM.bl cells [9]?
A: 0.07 µg/mL

Q: What about the IC50, titer in TZM.bl cells [10] of the same substance?
A: > 50 µg/mL

Q: What about the IC80, titer in TZM.bl cells [10] of the same substance?
A: > 50 µg/mL

Q: And the IC50, titer in TZM.bl cells [11]?
A: 0.03 µg/mL

Q: And the IC80, titer in TZM.bl cells [11]?
A: 0.17 µg/mL

Q: And the neutralization IC50 [12]?
A: 0.29 µg/mL

Q: And the neutralization IC80 [12]?
A: 1.44 µg/mL

Q: And the IC50, titer in TZM.bl cells [13]?
A: > 50 µg/mL

Q: And the IC80, titer in TZM.bl cells [13]?
A: > 50 µg/mL

Q: What about the neutralization IC50 [14] of the same substance?
A: 13.8 µg/mL

Q: And the neutralization IC80 [14]?
A: > 50 µg/mL

Q: And the IC50, titer in TZM.bl cells [15]?
A: 0.01 µg/mL

Q: What about the IC80, titer in TZM.bl cells [15] of the same substance?
A: 0.05 µg/mL

Q: What about the neutralization IC50 [16] of the same substance?
A: 5.76 µg/mL

Q: What about the neutralization IC80 [16] of the same substance?
A: 43 µg/mL

Q: What about the neutralization IC50 [17] of the same substance?
A: 0.02 µg/mL

Q: And the neutralization IC80 [17]?
A: 0.08 µg/mL

Q: And the neutralization IC50 [18]?
A: > 50 µg/mL

Q: What about the neutralization IC80 [18] of the same substance?
A: > 50 µg/mL

Q: What about the neutralization IC50 [19] of the same substance?
A: 45.4 µg/mL

Q: What about the neutralization IC80 [19] of the same substance?
A: > 50 µg/mL

Q: And the neutralization IC50 [20]?
A: 0.02 µg/mL

Q: What about the neutralization IC80 [20] of the same substance?
A: 0.06 µg/mL

Q: And the neutralization IC50 [21]?
A: 0.09 µg/mL

Q: And the neutralization IC80 [21]?
A: 0.31 µg/mL

Q: What about the neutralization IC50 [22] of the same substance?
A: 0.22 µg/mL

Q: And the neutralization IC80 [22]?
A: 0.75 µg/mL

Q: What about the neutralization IC50 [23] of the same substance?
A: 0.37 µg/mL

Q: What about the neutralization IC80 [23] of the same substance?
A: 1.67 µg/mL

Q: And the neutralization IC50 [24]?
A: 0.08 µg/mL

Q: And the neutralization IC80 [24]?
A: 0.31 µg/mL

Q: And the neutralization IC50 [25]?
A: 1.19 µg/mL

Q: What about the neutralization IC80 [25] of the same substance?
A: 8.9 µg/mL

Q: And the IC50, titer in TZM.bl cells [26]?
A: 0.06 µg/mL

Q: What about the IC80, titer in TZM.bl cells [26] of the same substance?
A: 0.38 µg/mL

Q: And the neutralization IC50 [27]?
A: < 0.01 µg/mL

Q: And the neutralization IC80 [27]?
A: 0.01 µg/mL

Q: And the IC50, titer in TZM.bl cells [28]?
A: 0.03 µg/mL

Q: And the IC80, titer in TZM.bl cells [28]?
A: 0.1 µg/mL

Q: And the neutralization IC50 [29]?
A: 0.15 µg/mL

Q: And the neutralization IC80 [29]?
A: 0.51 µg/mL

Q: And the IC50, titer in TZM.bl cells [30]?
A: > 15 µg/mL

Q: What about the IC80, titer in TZM.bl cells [30] of the same substance?
A: > 15 µg/mL

Q: And the IC50, titer in TZM.bl cells [31]?
A: 0.26 µg/mL

Q: What about the IC80, titer in TZM.bl cells [31] of the same substance?
A: 0.82 µg/mL

Q: What about the IC50, titer in TZM.bl cells [32] of the same substance?
A: > 15 µg/mL

Q: And the IC80, titer in TZM.bl cells [32]?
A: > 15 µg/mL

Q: And the neutralization IC50 [33]?
A: 0.05 µg/mL

Q: And the neutralization IC80 [33]?
A: 0.19 µg/mL

Q: What about the IC50, titer in TZM.bl cells [34] of the same substance?
A: 0.08 µg/mL

Q: What about the IC80, titer in TZM.bl cells [34] of the same substance?
A: 0.27 µg/mL

Q: What about the neutralization IC50 [35] of the same substance?
A: 0.03 µg/mL

Q: And the neutralization IC80 [35]?
A: 0.13 µg/mL

Q: What about the neutralization IC50 [36] of the same substance?
A: 0.13 µg/mL

Q: What about the neutralization IC80 [36] of the same substance?
A: 0.85 µg/mL

Q: And the neutralization IC50 [37]?
A: 0.21 µg/mL

Q: What about the neutralization IC80 [37] of the same substance?
A: 0.85 µg/mL
